Test [1] concerns the target HLA-B*15:01. The experiment in a line: IEDB peptide-MHC binding, purified MHC/competitive/fluorescence; ≥ and ≤ were set here for values at or beyond the usual limits of such assays.
For test [2], the target named is HLA-A*24:02. The test is described as above.
For test [3], the target named is HLA-A*02:01. The test is described as above.
The target of test [4] is HLA-A*32:01. Put plainly: IEDB peptide-MHC binding, purified MHC/competitive/radioactivity; filed as Kd, often an IC50 or EC50 that approximates it; ≥ and ≤ were set here for values at or beyond the usual limits of such assays. The note with it: source organism: Vaccinia virus WR.
Test [5] deals with HLA-B*15:03. The description is as above. The note with it: source organism: Vaccinia virus WR.
The target of test [6] is HLA-A*02:17. The description is as above.
The target in test [7] is HLA-A*02:01. The description is as above.
Test [8] has as its target HLA-B*08:01. The description is as above.
In test [9] the target is HLA-B*15:01. The description is as above. The settings on record: source organism: Vaccinia virus WR.
In test [10] the target is HLA-A*30:01. The test is described as above. The settings on record: source organism: Vaccinia virus WR.
Test [11] addresses HLA-B*57:01. Put plainly: IEDB peptide-MHC binding, purified MHC/direct/fluorescence; filed as Kd, often an IC50 or EC50 that approximates it; ≥ and ≤ were set here for values at or beyond the usual limits of such assays.
The target in test [12] is HLA-B*58:01. Described as above.
Test [13] addresses HLA-A*11:01. Put plainly: IEDB peptide-MHC binding, purified MHC/competitive/fluorescence; ≥ and ≤ were set here for values at or beyond the usual limits of such assays.
The target of test [14] is HLA-A*03:01. The description is as above.
Test [15] addresses HLA-A*02:03. The experiment in a line: IEDB peptide-MHC binding, purified MHC/competitive/radioactivity; filed as Kd, often an IC50 or EC50 that approximates it; ≥ and ≤ were set here for values at or beyond the usual limits of such assays.
Test [16] deals with HLA-A*31:01. Put plainly: IEDB peptide-MHC binding, purified MHC/direct/fluorescence; filed as Kd, often an IC50 or EC50 that approximates it; ≥ and ≤ were set here for values at or beyond the usual limits of such assays.
The target in test [17] is HLA-B*07:02. The test is described as above.
In test [18] the target is HLA-B*08:01. The description is as above. The settings on record: source organism: West Nile virus.
The target in test [19] is HLA-A*11:01. The test is described as above. The note with it: source organism: West Nile virus.
The target of test [20] is HLA-A*29:02. The test is described as above.
Test [21] has as its target HLA-B*46:01. The description is as above. The note with it: source organism: West Nile virus.
Test [22] has as its target HLA-A*01:01. Described as above.
Test [23] deals with HLA-A*03:01. The test is described as above.
The target of test [24] is HLA-B*40:01. The test is described as above. The note with it: source organism: West Nile virus.
For test [25], the target named is HLA-B*18:01. The test is described as above. The note with it: source organism: West Nile virus.
The target of test [26] is HLA-A*69:01. The test is described as above. The settings on record: source organism: West Nile virus.
The target of test [27] is HLA-B*27:05. The test is described as above. The settings on record: source organism: West Nile virus.
Test [28] addresses HLA-A*02:01. Described as above. The note with it: source organism: West Nile virus.
The target in test [29] is HLA-B*39:01. Described as above. The note with it: source organism: Mycobacterium tuberculosis.
Test [30] has as its target HLA-B*44:02. The test is described as above. The note with it: source organism: Mycobacterium tuberculosis.
For test [31], the target named is HLA-A*02:06. Put plainly: IEDB peptide-MHC binding, purified MHC/competitive/radioactivity; filed as Kd, often an IC50 or EC50 that approximates it; ≥ and ≤ were set here for values at or beyond the usual limits of such assays.
Test [32] concerns the target HLA-A*02:02. The description is as above. The note with it: source organism: Vaccinia virus WR.
Setting [33] is: source organism: Sudan ebolavirus.
Setting [34] is: source organism: Zaire ebolavirus.
The mark [35] stands for this setting: source organism: Dengue virus 1 Singapore/S275/1990.
Where [36] appears, read: source organism: Vaccinia virus WR.
Setting [37] is: source organism: Camelpox virus M-96.
Where [38] appears, read: source organism: Dengue virus 1 Brazil/97-11/1997.
The mark [39] stands for this setting: source organism: Dengue virus 4 Philippines/H241/1956.
Setting [40] is: source organism: West Nile virus.
Where [41] appears, read: source organism: Vaccinia virus.
Where [42] appears, read: source organism: Mycobacterium tuberculosis.
[43] abbreviates: source organism: Dengue virus 3 China/80-2/1980.
The mark [44] stands for this setting: source organism: Dengue virus 4 Dominica/814669/1981.
Where [45] appears, read: source organism: Dengue virus 1 Nauru/West Pac/1974.

Among the data in the Immune Epitope Database (IEDB) are IC50 and Kd values, retold here.

Where only a bound is given, the exact number is not on record here.

Broadly, the IC50 is the concentration that gives 50% inhibition. Consider KINQIIHDF, for which the IC50 in test [1] (setting [33]) was 27200 nM; in test [2] (setting [33]), 969 nM; in test [3] (setting [33]), at least 78600 nM.
GLFPQLSAI: the IC50 in [1] (setting [34]) came out at 10300 nM; in [2] (setting [34]), 8030 nM; in test [3] (setting [34]), 431 nM.
The term Kd denotes the concentration at which binding is half-saturated. With LMTMNIVNF, the values for the Kd in test [4] and in [5] were 6530 nM and 16.5 nM, respectively.
Consider LQKLAQHSI, for which the Kd in test [5] amounted to 243 nM.
The same measure, in the same setting: the result for HLIMFEQYF reads 45.5 nM.
Turning to VLMLVAHYAI, the Kd in test [6] (setting [35]) amounted to 1830 nM; in test [7] (setting [35]), 97.4 nM.
Regarding KTINALVYF, the Kd in [8] (setting [36]) was 17100 nM; in test [9], 0.366 nM; in [10], 131 nM; in test [4], 8.73 nM; in test [5], 22.7 nM; in [11] (setting [37]), 784 nM. The same sequence gave a Kd in test [12] (setting [37]) of 45.3 nM.
For the sequence GFRSGVPPK, the IC50 in test [13] (setting [33]) was 3210 nM; in [1] (setting [33]) it was at least 92300 nM; in test [14] (setting [33]) it was 3790 nM.
As for ELMRRGDLPV, the figures for the Kd in [15] (setting [38]) and in test [6] (setting [39]) were 139 nM and 19900 nM, respectively.
Take LVKTESWIL: the Kd in test [16] (setting [40]) is at least 20000 nM; in test [17] (setting [40]), at least 20000 nM; in [18] it was 1890 nM; in test [19], at least 20000 nM; in [11] (setting [40]), at least 20000 nM; in test [20] (setting [40]), at least 20000 nM. The dissociation constant (Kd) in [12] (setting [40]), in [21], in test [22] (setting [40]), in [23] (setting [40]), in test [24] and in [25] was at least 20000 nM each time. The Kd in test [26], in [27] and in [28] was at least 20000 nM throughout.
Regarding CMSNSRLSF, the dissociation constant (Kd) in test [5] was determined as 1.03 nM.
Take VLFVVTLIPL: the Kd amounted to 3110 nM in test [6] (setting [39]) and 57 nM in test [7] (setting [39]).
As to LLFGIKCIK, the 50% inhibitory concentration (IC50) was 734 nM in test [13] (setting [41]), at least 229000 nM in test [1] (setting [41]), 770 nM in test [14] (setting [41]) and 914 nM in test [3] (setting [41]).
In the case of LAVLFINSI, the Kd in test [5] turned out to be 191 nM.
For the sequence LFLDIECHF, the Kd in test [8] (setting [36]) is 1120 nM; in test [9], 547 nM; in test [10], 19 nM; in test [4], 3440 nM; in [5] it was 47.3 nM.
In the case of SQIITLTAF, the Kd in test [8] (setting [36]) was at least 40600 nM; in test [9], 1.01 nM; in test [10], 16400 nM; in [4], 1200 nM; in [5] it was 0.791 nM.
In the case of FLGEDGCWYG, the results for the Kd in test [6] (setting [39]) and in [7] (setting [39]) were 1050 nM and 52.4 nM, respectively.
Regarding ILTILTIIGL, the Kd in test [6] (setting [39]) turned out to be 456 nM; in [7] (setting [39]), 18.5 nM.
On to WQSVGHMMV, for which the 50% inhibitory concentration (IC50) in test [1] (setting [34]) is 4760 nM; in test [3] (setting [34]), 1540 nM.
Regarding SQAFNTPAL, the Kd in [16] (setting [42]) was at least 20000 nM; in [17] (setting [42]), at least 20000 nM; in test [11] (setting [42]) it was at least 20000 nM; in [20] (setting [42]), at least 20000 nM; in test [29], 30.8 nM; in test [30], at least 20000 nM. Also, the dissociation constant (Kd) in test [12] (setting [42]), in [22] (setting [42]) and in test [23] (setting [42]) was at least 20000 nM throughout.
Regarding ALLGAMTAGI, the Kd was found to be 58.8 nM in [15] (setting [39]), 126 nM in [6] (setting [39]) and 25.3 nM in test [7] (setting [39]).
On to CLMMMLPATL, for which the values for the Kd in test [8] (setting [43]), in [15] (setting [43]) and in test [6] (setting [43]) were 60.5 nM, 6.85 nM and 253 nM, respectively.
On to TLLCLIPTV, for which the Kd in test [31] (setting [44]) stood at 3.44 nM; in test [6] (setting [44]), 151 nM.
For the sequence ILHSDYQLF, in test [5], the Kd was found to be 2.43 nM.
In the case of ISASDMQKF, the dissociation constant Kd in [5] worked out at 812 nM.
With QQFYWPVMN, the results for the IC50 in [1] (setting [34]) and in test [3] (setting [34]) were 34000 nM and 8000 nM, respectively.
For AMLDVDLHPA, the Kd in test [31] (setting [45]) was 7.08 nM; in test [15] (setting [45]), 2.03 nM; in test [6] (setting [45]), 1100 nM; in test [7] (setting [45]), 5.66 nM.
As to GLAMGIMML, the values for the Kd in test [15] (setting [38]), in [6] (setting [45]) and in test [7] (setting [45]) were 0.67 nM, 15000 nM and 77.6 nM, respectively.
For CAVNTPVSM, the Kd in test [31] (setting [36]) was determined as 1520 nM; in [32], 6270 nM; in test [5], 43 nM; in test [15] (setting [36]), 15700 nM.
